Columns and labels:
Assay in all cases: ELISA: growth factor coated, Fg fragment in solution, A450 (methods analogous to Example 3)
FGF-7 = biological target: T1, FGF-7 (UniProt P21781 32-194)
T1 sequence (looked up): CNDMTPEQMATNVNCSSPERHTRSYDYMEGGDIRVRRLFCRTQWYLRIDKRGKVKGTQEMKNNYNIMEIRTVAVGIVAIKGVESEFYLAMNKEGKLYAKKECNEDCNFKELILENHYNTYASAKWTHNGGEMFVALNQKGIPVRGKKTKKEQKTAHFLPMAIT
Procedure: (§1) ELISA plates were coated with cytokines or BSA and further incubated with TNC III1-5 to analyze binding of TNC III1-5 to a wide variety of cytokines. […] A large amount of heparin (4 μM) impaired binding of TNC III1-5 to these cytokines. Results are depicted in FIG. 3. Method: 50 nM of cytokine was coated for (1 hr, 37° C.). After blocking with 2% BSA (1 hr, RT). 100 nM TNC III1-5 was applied in PBST (0.05% tween, 0.1% bovine serum albumin (BSA)) (1 hr, RT). TNC III1-5 was detected with horseradish peroxidase (HRP)-anti-HIS in PBST (1 hr, RT) and developed with 3,3′,5,5′-tetramethylbenzidine (TMB), a soluble colorimetric HRP […]. Addition of sulfuric acid stop solution changes the color to yellow, enabling accurate measurement of the intensity at 450 nm using a spectrophotometer or plate reader. […] Heparin (4 μM) was added to TNC III1-5 to test the effect of blocking the heparin binding site of TNC III1-5, which has been defined as domain TNC III5 (Weber, Zimmermann, et al., 1995).
(§2) ELISA plates were coated with cytokines or BSA and further incubated with Fg β15-66 to analyze binding of […] to a wide variety of cytokines. […] Results are depicted in FIG. 4. Method: The methods were analogous to those used in Example 3.

PDGF-BB = biological target: T2, PDGF-BB (UniProt P01127 82-190)
T2 construct: The name implies a homodimer of B chains
Procedure: as §1, §2

TGF-β2 = biological target: T3, TGF-β2 (UniProt P61812 303-414)
T3 sequence (looked up): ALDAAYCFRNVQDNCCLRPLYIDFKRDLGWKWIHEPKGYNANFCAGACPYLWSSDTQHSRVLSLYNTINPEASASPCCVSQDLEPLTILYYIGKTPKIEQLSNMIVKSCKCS
Procedure: as §1, §2

EGF = biological target: EGF
Procedure: as §1, §2

BMP-2 = BMP-2 (UniProt P12643 283-396)
Procedure: as §1, §2

FGF-6 = biological target: T4, FGF-6 (UniProt P10767 38-208, limits assumed)
T4 sequence (looked up): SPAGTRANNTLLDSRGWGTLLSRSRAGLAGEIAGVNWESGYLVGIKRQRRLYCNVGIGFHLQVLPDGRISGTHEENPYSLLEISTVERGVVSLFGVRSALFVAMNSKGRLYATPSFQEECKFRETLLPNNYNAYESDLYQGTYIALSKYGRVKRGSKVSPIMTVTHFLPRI
Procedure: as §1, §2

BDNF = biological target: T5, BDNF (UniProt P23560 129-247)
T5 construct: also called brain-derived neurotrophic factor
T5 sequence (looked up): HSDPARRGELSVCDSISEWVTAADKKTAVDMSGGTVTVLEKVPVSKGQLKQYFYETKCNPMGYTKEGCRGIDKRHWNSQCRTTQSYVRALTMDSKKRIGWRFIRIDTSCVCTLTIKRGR
Procedure: as §1, §2

TGF-β3 = biological target: T6, TGF-β3 (Natural form is a disulfide-linked homodimer; one protomer is given.)
T6 chain: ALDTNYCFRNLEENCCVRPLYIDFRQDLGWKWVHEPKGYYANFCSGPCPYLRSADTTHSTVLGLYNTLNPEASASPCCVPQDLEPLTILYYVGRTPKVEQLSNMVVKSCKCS
Procedure: as §1, §2

PlGF-1 = biological target: T7, PlGF-1 (UniProt P49763-2 19-149)
T7 sequence (looked up): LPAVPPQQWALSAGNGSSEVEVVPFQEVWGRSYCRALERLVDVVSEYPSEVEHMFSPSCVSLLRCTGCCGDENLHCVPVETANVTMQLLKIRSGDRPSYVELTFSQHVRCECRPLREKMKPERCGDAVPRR
Procedure: as §1, §2

Chain of BMP-2 (P12643 283-396 limits assumed): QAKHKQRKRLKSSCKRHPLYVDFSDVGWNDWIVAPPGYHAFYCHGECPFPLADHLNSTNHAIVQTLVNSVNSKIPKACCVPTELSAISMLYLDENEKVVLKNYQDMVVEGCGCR
T2 sequence (P01127 82-190 limits assumed): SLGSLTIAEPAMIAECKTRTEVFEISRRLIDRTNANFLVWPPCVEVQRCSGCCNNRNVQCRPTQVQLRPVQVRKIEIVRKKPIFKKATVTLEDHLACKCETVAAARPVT

B1: Fg β15-66 (other)
chain: GSNQEQVSPLGHRPLDKKREEAPSLRPAPPPISGGGYRARPAKAAATQKKVERKAPDAGGCGHHHHHH
notes: Made as a GST fusion; GST was cleaved off; also called TG-Fg β15-66; fibrinogen β15-66 domain
binding result (FGF-7): binds
binding result (PDGF-BB): binds
binding result (TGF-β2): binds
binding result (EGF): no binding
binding result (BMP-2): binds
binding result (FGF-6): no binding
binding result (BDNF): binds
binding result (TGF-β3): no binding
binding result (PlGF-1): no binding

— patent US20140011978A1 (EPFL TTO, published 2014)
